Measured values as given in publication PMC10279719 (Nature Communications, 2023).

What was measured:
Test in all cases: SPR; biotinylated PEAK proteins (with or without Src phosphorylation) captured with a biotin CAPture kit, CrkII NSH3 as analyte; Biacore 8K+, 20 °C, HBS-TP (150 mM NaCl); 1 M NaCl regeneration; steady state
Details in all cases: both partners purified
[1] = molecular target: T1, full length PEAK3 (PEAK3^FL, residues 1-473), from E. coli, phosphorylated by Src (human, UniProt Q6ZS72 1-473, phosphorylated with Src kinase (Y24 is the site shown for PEAK3^FL by MS/MS); other Src sites not stated; biotin (EZ-Link NHS-PEG4-Biotin, 1:1 molar ratio))
T1 construct: also called PEAK3-FL E.coli (+ Src phosphorylation); source: E. coli C41 (DE3), purified; phosphorylated in vitro with recombinant Src kinase domain
T1 sequence (looked up): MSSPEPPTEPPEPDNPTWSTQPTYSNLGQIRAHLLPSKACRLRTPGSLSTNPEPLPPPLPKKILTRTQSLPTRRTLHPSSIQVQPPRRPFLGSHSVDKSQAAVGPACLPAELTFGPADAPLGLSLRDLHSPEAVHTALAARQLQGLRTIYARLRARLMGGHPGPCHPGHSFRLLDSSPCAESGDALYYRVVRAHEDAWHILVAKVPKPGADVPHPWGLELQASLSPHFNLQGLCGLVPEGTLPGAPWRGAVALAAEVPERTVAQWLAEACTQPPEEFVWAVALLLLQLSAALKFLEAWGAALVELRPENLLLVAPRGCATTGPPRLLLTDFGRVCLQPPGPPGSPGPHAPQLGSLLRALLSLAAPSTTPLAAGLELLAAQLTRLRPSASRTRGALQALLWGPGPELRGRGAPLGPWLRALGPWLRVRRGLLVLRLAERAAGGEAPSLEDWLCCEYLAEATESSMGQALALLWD

[2] = molecular target: T2, PEAK1^IDR1 (residues 1082-1746), from insect cells (human, UniProt Q9H792 1082-1746, biotin (EZ-Link NHS-PEG4-Biotin, 1:1 molar ratio))
T2 construct: human PEAK1, UniProt Q9H792, residues 1082-1746; Purifies as a homodimer; Phosphorylation at the tandem 14-3-3 motif was not observed
T2 sequence (looked up): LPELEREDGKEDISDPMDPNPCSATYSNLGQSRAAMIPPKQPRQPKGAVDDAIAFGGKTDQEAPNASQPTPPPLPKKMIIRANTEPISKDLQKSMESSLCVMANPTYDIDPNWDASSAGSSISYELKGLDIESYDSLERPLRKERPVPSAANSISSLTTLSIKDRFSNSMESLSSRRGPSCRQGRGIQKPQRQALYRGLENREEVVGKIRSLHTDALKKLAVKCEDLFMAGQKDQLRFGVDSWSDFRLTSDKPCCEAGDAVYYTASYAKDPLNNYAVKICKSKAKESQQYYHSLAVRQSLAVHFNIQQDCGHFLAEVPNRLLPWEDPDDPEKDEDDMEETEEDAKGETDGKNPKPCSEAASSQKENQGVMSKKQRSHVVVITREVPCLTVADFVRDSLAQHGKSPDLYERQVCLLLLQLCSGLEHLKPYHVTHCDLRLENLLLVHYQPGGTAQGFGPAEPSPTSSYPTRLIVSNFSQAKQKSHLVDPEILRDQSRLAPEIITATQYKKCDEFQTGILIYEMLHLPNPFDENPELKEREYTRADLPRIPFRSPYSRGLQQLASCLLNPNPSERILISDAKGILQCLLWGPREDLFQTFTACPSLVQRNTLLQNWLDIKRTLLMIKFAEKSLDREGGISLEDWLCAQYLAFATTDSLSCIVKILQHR

[3] = molecular target: T3, full length PEAK3 (PEAK3^FL, residues 1-473), from insect cells, phosphorylated by Src (human, UniProt Q6ZS72 1-473, phosphoserine at S69; phosphotyrosine at Y24 (by Src in vitro, shown by MS/MS); other Src sites not stated; biotin (EZ-Link NHS-PEG4-Biotin, 1:1 molar ratio))
T3 construct: As Sm27, with Src phosphorylation before immobilisation; also called PEAK3-FL (+ Src phosphorylation); source: Sf21 insect cells, purified as a complex with insect 14-3-3ε,ζ; phosphorylated in vitro with recombinant Src kinase domain
T3 sequence (looked up): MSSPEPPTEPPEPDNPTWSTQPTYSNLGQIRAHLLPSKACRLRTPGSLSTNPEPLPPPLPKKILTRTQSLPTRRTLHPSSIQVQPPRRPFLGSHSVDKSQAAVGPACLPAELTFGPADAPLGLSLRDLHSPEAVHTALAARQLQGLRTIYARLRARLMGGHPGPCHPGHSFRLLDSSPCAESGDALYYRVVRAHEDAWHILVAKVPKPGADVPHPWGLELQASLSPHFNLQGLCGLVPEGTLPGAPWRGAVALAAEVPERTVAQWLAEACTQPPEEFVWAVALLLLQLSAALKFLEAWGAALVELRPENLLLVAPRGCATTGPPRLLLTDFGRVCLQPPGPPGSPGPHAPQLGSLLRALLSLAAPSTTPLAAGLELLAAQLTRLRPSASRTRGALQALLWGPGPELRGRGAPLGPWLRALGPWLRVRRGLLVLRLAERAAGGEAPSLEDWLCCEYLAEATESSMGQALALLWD

[4] = molecular target: T4, PEAK2^IDR1 (residues 802-1406), from insect cells, phosphorylated by Src (human, UniProt Q86YV5 802-1406, phosphorylated with Src kinase, sites not stated; phosphorylation of the tandem site 14-3-3 motif (RAASSP) found by proteomic analysis; biotin (EZ-Link NHS-PEG4-Biotin, 1:1 molar ratio))
T4 construct: human PEAK2 (SgK223, PRAG1), UniProt Q86YV5, residues 802-1406; also called PEAK2-IDR1 (+ Src phosphorylation); source: Sf21 insect cells, purified; phosphorylated in vitro with recombinant Src kinase domain
T4 sequence (looked up): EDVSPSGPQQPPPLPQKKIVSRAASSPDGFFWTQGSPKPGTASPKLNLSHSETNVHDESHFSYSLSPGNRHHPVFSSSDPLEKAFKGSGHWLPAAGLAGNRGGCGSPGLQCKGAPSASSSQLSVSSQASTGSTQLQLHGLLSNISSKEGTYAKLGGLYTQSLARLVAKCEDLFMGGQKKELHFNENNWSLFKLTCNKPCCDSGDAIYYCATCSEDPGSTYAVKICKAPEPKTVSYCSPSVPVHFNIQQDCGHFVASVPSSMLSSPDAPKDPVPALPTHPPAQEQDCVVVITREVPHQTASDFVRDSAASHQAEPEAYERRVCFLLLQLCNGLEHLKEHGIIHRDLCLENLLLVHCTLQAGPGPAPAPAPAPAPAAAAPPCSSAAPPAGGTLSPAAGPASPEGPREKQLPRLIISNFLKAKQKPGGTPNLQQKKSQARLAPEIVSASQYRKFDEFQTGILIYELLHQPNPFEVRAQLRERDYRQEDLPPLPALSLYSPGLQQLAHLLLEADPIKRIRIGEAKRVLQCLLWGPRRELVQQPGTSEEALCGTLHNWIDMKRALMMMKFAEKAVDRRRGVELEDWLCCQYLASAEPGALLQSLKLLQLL

- Kd [1]: 13.1 µM
- Kd [2]: 3.7 µM
- Kd [3]: 6.84 µM
- Kd [4]: 5.2 µM
B1: CrkII N-terminal SH3 domain (CrkII^NSH3, residues 134-191) (domain or fragment, human, UniProt P46108-1 134-191, looked up)
chain: AEYVRALFDFNGNDEEDLPFKKGDILRIRDKPEEQWWNAEDSEGKRGMIPVPYVEKYR
notes: human CrkII NSH3 domain, UniProt P46108-1, residues 134-191; Amine coupled to a CM5 chip in a2; analyte in a4; in the syringe in ITC
